Consider 23 sequences from the DeepSol protein solubility set.

This series in a line: soluble on expression in E. coli; label from the status in PepcDB or PDB records.
For the sequence “MGSDKIHHHHHHMGIEAAVGAWNNTPRGDFAYKGTNLDIKDELKYDDETRLMGRVKIETPLFFPNLYLMATPMEFDGQGSKSGTFQFGDVTFDGTVPFTSELKLDHYDLGLYWGIPLLKTATAGVVNVDLGIDARLIDLKAEVVQGGVTESKSLVVGVPMIYAGVQVRPLSWFAAEGEARGMAYGDNRYYDLIARGKLILFDHLFAAAGYRYEKIEIDESDIKADVDFGGPFAEVGFQF”, the “soluble on expression in E. coli” value is recorded as “not soluble”.
Then “MGAIEDVYADLDTDVSIEEFREAVESKVEQMGGLADEETAAMLIAHEIDDGEVNGVADIDSEMDEVKFIAKVTRVGDVRTFDREDADDDDAAAEGRVVNVTVADETDDVRVSLWDEQATAAADDLAPGDVLRIKGRPTDGYNGLEVSADEVELDADEQIDVQIQDEYDAADLSLGVSDVTLVGEVLDTEAVRTFDRDDGSEGRVSNLVVGDETGRVRVTLWDDQADTATDLDAGAVVEIVDGYVREREGSLELHVGDTGAVTPVPDADVSFVPDTTSIDSLEQDDTADIAGVVRSVDPTRTFDRDDGSEGQVRNVRLQDDTGDIRVALWGEKADLDIGPGDEVAALDVEIQDGWQDDIEASAGWQASVIPLSDSTQDDAAAGSDGPDRGLAAFGADSDDEPAATDDAADTQTPHSDTPVEFTGVVVQAQDPLILDDGEETMSVTTDADVTLGQEVTVRGSLDDGRLHADDVTESLEHHHHHH”, with “not soluble”.
Regarding “MSLDKKPVTTRKKVKVTGTETYINQSTGEIKEMQVIDIEERDFNFHKVWLEHIIHSMDLIGNQKTRLAFWLINNLNRDNVLIMTQRKIAEKTGISLETVRQTMKALMESGFLIKINSGAYCVNPDAVFKGGKTDRLNVLIQYRKSEQENTKTSEPTSEKDEPSLFNNEQLKAMEGHHHHHH”, the “soluble on expression in E. coli” value is on record as “soluble”.
With “HMSVILDTKGEPVSNAADAYYLVPVSHGEGGLALAKVGNEAEPKAVVLDPHHRPGLTVRFETPLAIAIITESFFLNIKFVPSSSDSEVWDVSKQYPIGLAVKVTDTKSFVGPFRVEKEGEGYKIVYYPDRGQTGLDIGLVHRNDKYYLAATEGEPFVFKIRKATYE” the entry was “soluble”.
Regarding “MENELQDFPEPNYNVHAFYYVWYGSPQFDGKYVHWDHPLLPHWDPKVASSYSTGRHQPPEDIGANFYPALGPYSSRDPAVLEEHMRQLRMAAVGVLAVSWYPRSMKDDNGEEIDSLLPLILDAADKYQLKVLYNLYVFKNVICINKYV”, the “soluble on expression in E. coli” value is “not soluble”.
On to “EAMKIKNQFATWDYEKKLQSMEHDSSIQKQLLATQRAQIEQRLAAQKAALEAERDAAGYHAAAGEADNEGVRQAYDALAQDSARRARDLAETAQRGKSQLDEIVGRLKDLADRSAANIINQGINQTVVVKLEKTGRLHTDQDIAKALEETLNAVKGLEARVEMVEAARAPSALEAAHSQL”, for which the “soluble on expression in E. coli” value is recorded as “not soluble”.
Then “DKQKALKKIAKCLELGNSANINEAANAIKMAHNLMLKYGLDKDDIEFIKMGKTQSTHLLPAAISSGILRVIRGINTRFGVEAVLLNHKGLKRVEFIGEADRAIFAAFAFDIIYREMNEQTGQFRNSFAGTGTSSLEVTRRVNSFVSGWIEGALEKLPIITPDEDSMNKINSYIDKEFENIDRETFKQQLREAMKNLTEDYETGLKKGRRVSVNRPIHGAQAPKLLK”, with “not soluble”.
Consider “MGSDKIHHHHHHMPIKVSPVAGSRFYIGSAPVDVPDTDVTEADFSAVTWIEVGQYETMGNSGDSAQGNTVNLLNRRRTYNWKGSRQAPQRSDNFALNTSDPGQLAMIAAEATDFNYPFKVELNGAPIPKSATAIITIASPGVVTWTGHNLAANTAVKFSTTGALPTGLTAGTSYYVKTVLDADTFTLSATKGGPVIATTGTQSGTHTATTIPSGPQRLFMGQVLAAEEGMGGANNAQMLNCTVLPNTNYVRVAALG”, for which the “soluble on expression in E. coli” value was “not soluble”.
As for “MAPCLENVACVNLSAMPPAPPSPQPVSHKQAATLCRQGRTCALKSGSNESGGSVTSTYTSYRLISQDIGKSLERVSKQPDVARETEYYREKIGSVKSIDDFMADTRLYNYALKAHGLEDMAYAKAFIRKVLTEGASDKNAFANKLSDNRYAELAKSLDFAGLGAAATATEAAKSGVIGNYARQTLEQEAGDDNNGVRLALYFERKAPTIKSGLDFLADDALAQVFRTTFNLPDAFAAADVDKQAALIEKSINIKDLQDPEKVGKLLERFTIMWEMQNPSTTYDPLAVFGSSSGYGISPDLLISINSLKLGGKAAALEHHHHHH”, the “soluble on expression in E. coli” value is given as “soluble”.
With “MGSSHHHHHHSSGLVPRGSHMSISRFGVNTENEDHLAKELEDLNKWGLNIFNVAGYSHNRPLTCIMYAIFQERDLLKTFRISSDTFITYMMTLEDHYHSDVAYHNSLHAADVAQSTHVLLSTPALDAVFTDLEILAAIFAAAIHDVDHPGVSNQFLINTNSELALMYNDESVLENHHLAVGFKLLQEEHCDIFMNLTKKQRQTLRKMVIDMVLATDMSKHMSLLADLKTMVETKKVTSSGVLLLDNYTDRIQVLRNMVHCADLSNPTKSLELYRQWTDRIMEEFFQQGDKERERGMEISPMCDKHTASVEKSQVGFIDYIVHPLWETWADLVQPDAQDILDTLEDNRNWYQSMIPQSPSPPLDEQNRDCQGLMEKFQFELTLDEEDSEGPEKEGEGHS”, the “soluble on expression in E. coli” value was “soluble”.
As to “SDTFSTKSLALQAQKKVLSKMASKAMVAVFVDNTSSEVLDELYQATKEFTRSRKEAQRVVKNLVKVAVKLAVLLRADQLDSNELAQLQRFRGRVRSLAMTALSFHQVDFTFDRRVLATGLLECRDLLHQAIGPHLTAKSHGRINHIFSHFANGDFLAALYSPAEPYRSHLCRICDGLGRMLDEGGI”, the “soluble on expression in E. coli” value is “soluble”.
Turning to “MASLIQVRDLLALRGRMEATQISHTLHAPQPMIDAMLNQLEIMGKAVRIPEEPDGCLSGSCKSCPEGKACLREWWALR”, the “soluble on expression in E. coli” value is on record as “not soluble”.
For the sequence “MGSDKIHHHHHHMSRVGFTTSIPVEVILAAGKTPVDLNNVFINSLSPQSMVDLAEEEGYPRNCCGWIKGLYATSLNYDMEALIAVMHGDCSNTQALMETLQLRNKKIIPFAFPFDRERSQLEAQVDKLMQFFEVDMEEVLKARARLEKIRSLCRELDRMTWRDNLVTGQENHYYLLCSSDFNGNPAEFEAELHSFVEEAGKRRPIQEEVRLAYIGVPPIFTDLHQLLELMGARVVFNEVQRQFSMPVESSDIIEQYLHYTYPYGAFARLEDIEEQLAVRDVQGVIHYTQTFCFRQIEDLIFRERLKIPFLTLEGDRPGKVDARSRMRLESFVSMLKK”, the “soluble on expression in E. coli” value is “not soluble”.
Then “MGSDKIHHHHHHMNPADNILWGNIIKVHGVKGEVLVQVFSDDLTDYETLESVFVEIKQKQIPFFLSTFNFATQKRCILSFEDVTTVEQAKPLVGADIYIPVSKMAEADESRLSYQAIIGFEVMDTIQGKLGVISNFFQKTGQDLLMMDYQDAEILIPVTEEIVHSVDVKTKQVITTLPEGLIEIYLNEDASEPDAD”, with “not soluble”; and “MNAFFTRALKPGARPLDETPGAILCPADGAVSQLGPIEHGRIFQAKGHGFSAQELLGGDPAMAAPFMGGEFATIYLSPKDYHRVHMPLAGTLREMVYVPGRLFSVNQTTAENVPELFARNERVVCLFDTERGPMAVVLVGAMIVASIETVWAGLVTPPKRELKTFRYDEASRTPIHLEKGAELGRFKLGSTAIVLFGPEQVKWAESLGAGSAVRMGQQLAAPAQALEHHHHHH”, with “not soluble”.
On to “MSLTIYVYVLDTLADWEIGYVNSELNSRRFFKKDANRVSLKTVSYSKEPIKTMGGMTIVPDCVIDDIVMSETSVLLLPGADTWNNLEHKAIIKKASELLALNATVAAICGATVALANHGLLDNRPHTSNGAGFLEMFSSSYKGQNSYINELSVWDNNLITASSAGALLWAKQIIAHLDVFESNTLESWYAYFNTGDPKHFYALMESLPDNNEGHHHHHH”, for which the “soluble on expression in E. coli” value was “soluble”.
In the case of “MVGRKRRASMSITDGNGSLSDTVRPGDWVVVAELATPAFSVKNPESYQVASPLPLPLPSTLLGGLMRGASLLGSCTGGIASQSCIKKTGRIVKAAAPLSKPGQILGVEWEVVLRRLRKVLEPDSEEGSTRENRGNRVLDELSRISDALLRGYITPYNPVYAVFVARGRDNANRIEKALWYIDRLGDSESLVSARPVGRCQLAEFRSKSVNTPVALDSAVGGSFTVVYAPARAGRTGRTRRSEAIAIAMPVKKEAVERGYVLVYSEIEVEGSVYGCSVEGIDGRINVAVHESFHEVSGYGIWMPA”, the “soluble on expression in E. coli” value was “not soluble”.
Take “MTAIEQTEAVRPRGTRLPRRARRNQLLGAAQEVFVAQGYHAAAMDDIAERAGVSKPVLYQHFPGKLDLYLALLDQHCEALIQSVRSALASTSDNKQRVRATMDAYFAYVEDDGGAFRLVFESDLTNEPAVRERVDKVTNECAEAICDVIAEDTGLSRAESMLLASGLGGLAQVVARSWLHSDRSVPRDQAVQLLTSLAWRGIAGFPLHGIEQH”: the “soluble on expression in E. coli” value is listed as “not soluble”.
Regarding “MAGDPMYRVGIDVGGTNTDAVVLQDKTVLAGVKASTTEDVTSGVIEALEKVIDASGIDRARIGAVMIGTTHFTNAVIERRHMDEVAAIRIGLPSGAGLPPMVDWPDDLKEIVGNHGYQVRGGYEFDGREISPLDEDEIVRIAADIRAKALKAAAVTCVFSGINDAMEVRAKEILQDRCPGLPVVMSKDIGRHGLLARESAAIMNASLLSLADRTVAAFGEALKAAGITCPFYITQNDGTLMAADVVRGFPVLTFASGPTNSMRGAAFLTGLKDAVVVDVGGTTSDVGSLSHGFPRQASTTVDIGGVRTNFRMPDVFSIGLGGGSMVVNGDHGLTVGPKSVGYRVRRDALCFGGSTLTATDIAVASGKADVGEKALVSSLDKRLVDAAVNKINDMLEACVERSRISSSPVPVIAVGGGSILMPDRIGNLDVIRPENFAVANAVGAAIAQISGETDRVFSLIDGRTRESALAEAEAEAREKAIAAGAIAETLEVIEREDMPLAYLPGNATRIHVKVVGEMGANHGAAALEHHHHHH”, the “soluble on expression in E. coli” value is “not soluble”.
Then “MKISIRHRYIAKIPALEVTTEEQKNEALPLIVYYHGWQSAKELSLTQARKLAHEGFRVILPDAMNHGERKTEPISTIPSITFWSSIQYNLIEFPVIIHHFHKLGLIKENWIGVGGVSMGGITTSALMTQHPEIQAAACLMGTPYPARYIQRVIQRAKEFAIFVPKDLPLLLSWVHQYDLSQTPERLQERPMLFWHGTEDEKIPYEDMADFEQLVSGKTYARNTQFITEIGERHLVKGETMDLVVDFFKEASKTLEK”, with “not soluble”; and “MSKAIKQNLADSKKMSAELFCLTYGAMVTEMLKDYEDPKDVTIQLDKMGFNMGTRLADDFLAKNANVPRCVDTRQIADVLCRNAIPCYLGISATASSWTSGDREFTITLEANPLTELVQVPAHLVSAGLSYSQLIAGAIRGALEAVHFKVYASATDTGANTEIRIRFDQVLKDSLPAGEDD”, with “not soluble”; and “MAAKKDYYAILGVPRNATQEEIKRAYKRLARQYHPDVNKSPEAEEKFKEINEAYAVLSDPEKRRIYDTYGTTEAPPPPPPGGYDFSGFDVEDFSEFFQELFGPGLFGGFGRRSRKGRDLRAELPLTLEEAFHGGERVVEVAGRRVSVRIPPGVREGSVIRVPGMGGQGNPPGDLLLVVRLLPHPVFRLEGQDLYATLDVPAPIAVVGGKVRAMTLEGPVEVAVPPRTQAGRKLRLKGKGFPGPAGRGDLYLEVRITIPERLTPEEEALWKKLAEAYYARA”, with “soluble”.
Take “MAKPSDSADICQAPVQTAQAPLPKDSALDDLIGYAMRRAQLKLFQNLIGRLSAHDLRPAQFSALAIIEQTPGLMQADLAKALAIEPPQVVPLLNKLEERALAVRVRCKPDKRSYGIFLSKTGETLLRELKQIAVDSDLDSTSALDNQERNDLLRLLKKVYQS”: the “soluble on expression in E. coli” value is “not soluble”.
